Eleven molecules from patent publication US20230002494A1 (SANYOU BIOPHARMACEUTICALS, published 2023) can be followed below.

Assay [1] deals with T1, human PD-L1 (full-length, on cells) (human, UniProt Q9NZQ7 19-290).
T1 construct: whole, on cells; Expressed on CHO-s cells; also called human PD-L1-CHO; PD-L1-CHO
Description: FACS blocking on huPDL1-CHO cells; blocked ligand PD-1-Biotin 1 µg/mL; MFI = bound PD-1.

The target of assay [2] is T1, human PD-L1 (full-length, on cells). As to the kind of experiment: FACS on huPD-L1-CHOK cells.
The target in assay [3] is T2, rhesus monkey PD-L1 (full-length, on CHO-s cells) (rhesus monkey, UniProt F6VEW6 19-290).
T2 construct: whole, on cells; also called monkey PD-L1-CHO
As to the kind of experiment: FACS, monkey PD-L1-CHO cells. An excerpt: (§1) In order to evaluate 4 derisked VHH-Fc candidate antibodies, an FACS method is used to detect the binding activities thereof to cell expressed human PD-L1 and monkey PD-L1 proteins.
A general note: A flow cytometer gives signals particle by particle.

In assay [4] the target is T1, human PD-L1 (full-length, on cells). As to the kind of experiment: FACS, human PD-L1-CHO cells.
Source text: as §1

Assay [5] has the same target. Description: FACS on human PD-L1-CHO cells, PE anti-human IgG Fc. From the text:
1) collecting the cultured human PD-L1-CHO cells, centrifuging the collected cells at 300 g to remove the supernatant, resuspending the cells in a formulated FACS buffer and counting the cells, and adjusting the density of the cell suspension to 2×10⁶ cells/mL;

Assay [6] has the same target. Description: FACS blocking on PD-L1-CHO cells, lysate samples; the blocked ligand is not named on the sheet or in Example 17.
In assay [7] the target is T3, mouse PD-L1 (full-length, on CHO-s cells) (mouse, UniProt Q9EP73 19-290).
T3 construct: whole, on cells; also called mouse PD-L1-CHO
As to the kind of experiment: FACS on mouse PD-L1-CHOK cells.

As a reminder, the EC50 (read off the curve) is the midpoint of the concentration-response curve. In general, EC50 refers to the concentration needed to bring the measured effect to its halfway point.

T3 sequence (Q9EP73 19-290): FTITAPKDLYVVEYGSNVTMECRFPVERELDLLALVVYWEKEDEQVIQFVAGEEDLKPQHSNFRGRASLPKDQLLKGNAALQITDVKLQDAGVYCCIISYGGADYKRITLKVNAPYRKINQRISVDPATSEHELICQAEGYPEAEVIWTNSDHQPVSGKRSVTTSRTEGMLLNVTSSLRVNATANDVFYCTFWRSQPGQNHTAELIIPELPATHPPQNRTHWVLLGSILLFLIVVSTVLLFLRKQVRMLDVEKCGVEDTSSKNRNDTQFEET
T1 sequence (Q9NZQ7 19-290): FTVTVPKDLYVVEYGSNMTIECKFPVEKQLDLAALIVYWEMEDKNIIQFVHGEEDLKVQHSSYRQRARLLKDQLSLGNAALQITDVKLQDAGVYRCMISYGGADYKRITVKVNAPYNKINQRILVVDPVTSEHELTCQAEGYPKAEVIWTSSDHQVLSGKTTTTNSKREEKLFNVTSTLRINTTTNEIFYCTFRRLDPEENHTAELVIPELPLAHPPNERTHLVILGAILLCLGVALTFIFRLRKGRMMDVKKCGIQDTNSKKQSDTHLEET

B1: NB22D-21-94 (Fc fusion)
chain: EVQLVESGGGLVQPGGSLRLSCAASRTAGNIHGMHWYRQAPGKGREWVGSIFITGNTIVTDSVKGRFTISRDNAKNTLYLQMNTLRAEDTAVYYCAADVRGYGRAWGQGTTVTVSS
notes: not shown: 'full-length antibodies' were constructed
For the molecule B1, in assay [1], the “IC50 (read off the curve)” value was around 0.2 µg/mL. The half-maximal effective concentration (EC50 (read off the curve)) in assay [2] is around 0.2 µg/mL.

B2: NB22D-21-17 VHH-Fc chimeric antibody protein (Fc fusion)
chain: EVQLVESGGGLVQPGGSLRLSCAASRTGSNIYGMHWYRQAPGKGREWVGTIFIDWNTIVTDSVKGRFTISRDNAKNTLYLQMNTLRAEDTAVYYCAADVSGYGRAWGQGTTVTVSS
notes: not shown: human IgG1 Fc fragment, its N-terminus linked to the C-terminus of the VHH
Turning to B2, the results for the EC50 in assay [3] and in assay [4] were 3.25 µg/mL and 1.73 µg/mL, respectively.

B3: NB22D-21-huVH1 (Fc fusion, not shown: a dimerising Fc or GST)
chain: EVQLVESGGGLVQPGGSLRLSCAHSRTDSNINGMHWYRQAPGKGREWVGTIFIDGNTIVTDSVKGRFTISRDNAKNTLYLQMNTLRAEDTAVYYCAADVSGYGRAWGQGTTVTVSS
notes: Humanized form of NB22D-21; also called humanized antibody NB22D-21-huVH1
Take B3: in assay [5], the “EC50 (read off the curve)” value is around 0.1 µg/mL.

B4: SY01-D21-8 (VHH lysate) (VHH)
VHH: EVQLVESGGGLVQPGGSLRLSCAASRTYSNIYGMHWYRQAPGKGREWVGTIFIGSNTIVTDSVKGRFTISRDNAKNTLYLQMNTLRAEDTAVYYCAADVSGYGRAWGQGTTVTVSS
With B4, in assay [6], the “IC50 (read off the curve)” value was around 0.3 µg/mL.

B5: 47 (VHH)
VHH: EVQLVESGGGLVQPGGSLRLSCAASRTLSNIRGMHWYRQAPGKGREWVGTIFIDLNTIVTDSVKGRFTISRDNAKNTLYLQMNTLRAEDTAVYYCAADVSGYGRAWGQGTTVTVSS
notes: also called SY01-D21-47
Consider B5, for which the “IC50 (read off the curve)” value in assay [6] was around 0.3 µg/mL.

B6: NB22D-21-109 (Fc fusion)
chain: EVQLVESGGGLVQPGGSLRLSCAASRTAGYIHGMHWYRQAPGKGREWVGMIFGWGNTIVTDSVKGRFTISRDNAKNTLYLQMNTLRAEDTAVYYCAADVRGYGRAWGQGTTVTVSS
notes: as for B1
Turning to B6, in assay [1], the “IC50 (read off the curve)” value is around 0.2 µg/mL. The figures for the “EC50 (read off the curve)” value in assay [7] and in assay [2] were around 1 µg/mL and around 0.2 µg/mL, respectively.

B7: NB22D-21-45-106 (Fc fusion)
chain: EVQLVESGGGLVQPGGSLRLSCAASRRWSNIHGMHWYRQAPGKGREWVGSRFITGNTIVTDSVKGRFTISRDNAKNTLYLQMNTLRAEDTAVYYCAADVRGYGRAWGQGTTVTVSS
notes: as for B1
B7: the “IC50 (read off the curve)” value in assay [1] is around 0.2 µg/mL. The binding result in assay [7] is reported as “binds”. Besides, the “EC50 (read off the curve)” value in assay [2] is around 0.2 µg/mL.

B8: NB22D-21-123 (Fc fusion)
chain: EVQLVESGGGLVQPGGSLRLSCAASPTASNIHGMHWYRQAPGKGREWVGMIFITGLTIVTDSVKGRFTISRDNAKNTLYLQMNTLRAEDTAVYYCAADVSGYGRAWGQGTTVTVSS
notes: as for B1
For B8, the “IC50 (read off the curve)” value in assay [1] is around 0.2 µg/mL. Moreover, the binding result in assay [7] is given as “binds”. The “EC50 (read off the curve)” value in assay [2] is around 0.2 µg/mL.

B9: NB22D-21-8 VHH-Fc chimeric antibody protein (Fc fusion)
chain: EVQLVESGGGLVQPGGSLRLSCAASRTYSNIYGMHWYRQAPGKGREWVGTIFIGSNTIVTDSVKGRFTISRDNAKNTLYLQMNTLRAEDTAVYYCAADVSGYGRAWGQGTTVTVSS
notes: as for B2
For B9, the EC50 in assay [3] is 0.7 µg/mL; in assay [4], 0.26 µg/mL.

B10: NB22D-21-154 (Fc fusion)
chain: EVQLVESGGGLVQPGGSLRLSCAASRTASNAMGMHWYRQAPGKGREWVGMIFRDGNTIVTDSVKGRFTISRDNAKNTLYLQMNTLRAEDTAVYYCAADVRGYGRAWGQGTTVTVSS
notes: as for B1
As for B10, the “IC50 (read off the curve)” value in assay [1] is around 0.2 µg/mL. Besides, in assay [7], the binding result was “binds”. In assay [2], the concentration for a half-maximal effect (EC50 (read off the curve)) was around 0.2 µg/mL.

B11: SY01-D21-24 (VHH lysate) (VHH)
VHH: EVQLVESGGGLVQPGGSLRLSCAASRTFSNIFGMHWYRQAPGKGREWVGTIFITGNTIVTDSVKGRFTISRDNAKNTLYLQMNTLRAEDTAVYYCAADVSGYGRAWGQGTTVTVSS
Regarding B11, the “IC50 (read off the curve)” value in assay [6] is around 0.5 µg/mL.
